From the nanobody polyreactivity screen of Harvey et al. (2022)

Assay: yeast display, Sf9 membrane polyspecificity reagent, FACS + sequencing; frameworks hold sequencing errors
Outline: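 Sorting gates, low and high (top ~1%), were placed on anti-HA fluorescence to track expression and on streptavidin fluorescence to track reagent binding. A clone's polyreactivity label is taken from the gate it came out of. The reagent was 10% biotinylated, detergent-solubilized Sf9 membrane, applied for 1 hour at 4 °C to galactose-induced yeast display cells.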

Sequence | polyreactivity (PSR sort gate)
QVQLVESGGGLVQSGGSLRLSCAASGYIFGYYAMGWYRQAPGKERELVAAITGTDDTYYADSVKGRFTISRDNAKNTVYLQMNSLKPEDTAVYYCAAYSWWNEYDYWGQGTQVTVSS | high polyreactivity
QVQLVESGGGLVQAGGSLRLSCAASGFIVKYNAMAWYRQAPGKERELVAAISYRGTRTYYADSVKGRFTISRDNAKNTVYLQMNSLKPEDTAVYYCNAGLTYNHDPYDYWGQGTQVTVSS | high polyreactivity
QVQLVESGGGLVQAGGRLRLSCAASGFIFYDYAMGWYRQAPGKERELVAVITSGGSTYYADSVKGRFTISRDNAKNTVYLQMNSLKPEDTAVYYCNADWVFTWYDYPNDKYDYWGQGTQVTVSS | low polyreactivity
QVQLVESGGGLVQAGGSLRLSCAASGSIFIYYAMGWYRQAPGKERELVAAINTGGTTYYADSVKGRFTISRDNAKNTVYLQMNSLKPEDTAVYYCAKYIAYYGYVPSPWDHPGDDYWGQGTQVTVSS | low polyreactivity
QVQLVESGGGLVQAGGSLRLSCAASGSTFYPYAMGWYRQAPGKERELVAAISYSGGSTYYADSVKGRFTISRDNAKNTVYLQMNSLKPEDTAVYYCAAYYRVYGASYDYWGQGTQVTVSS | high polyreactivity
QGQLVESGGGLVQARGSLRLSCAAYGRTFYGNVMGWYRQAPGNERELDATISVSSGSTYYADSVKGRFTISRDTEKNTVYLLMNSLKPEDSAVYYCNADDTDYATGGGNYWGQGTQVTVSS | low polyreactivity
QVQLVESGGGLVQAGGSLRLSCAASGIIFRSYTMGWYRQAPGKERELVASITRSGGITYYADSVKGRFTISRDNAKNTVYLQMNSLKPEDTAVYYCAARHRYYYQYRSDYWGQGTQVTVSS | high polyreactivity
QVQLVESGGGLVQAGVSLRLSCAASGSIFDFYAMGWYRQAPGKERELVATITASGGSTYYADSVKGRFTISRDNAKNTVYLQMNSLKPEDTAVYYCNADSVYWGQGTQVTVSS | low polyreactivity
QVQLVESGGGLVQARGSLRLSCAASGSIFAYNAMGWYRQAPGKERELVARISNRSGRTYYADSVKGRFTISRDNAKNTVYLLMNSLKPEDTAVYYCGVVAGLGTYRRYGYCGQGTQVTVSS | high polyreactivity
QVQLEESGGRLVQAGGSLRLSCAASGRTFGPYGMGWYRQAPGKESELDAAINGNGDSTYYADSVKGRFTISRDNAKNTVYLQMNSLKPEDTAVYYCASEGWPDYTSRLYDYWGQGTQVTVSS | low polyreactivity
QVQLVESGGGLVQAGGSLRLICAASGNTFKYNAMGWYRQAPGKERELVAAITWRGTSTSYADSVKGRFTISRDNAKNTVYLQMNSLKAEDTAFYYSNAVYYWYGRVAYSFGYWGQGTQVTVSS | high polyreactivity
QVQLVESGGGLVHAGGSLRLSCAASGGTFGHYTMGWYRQAPGKERELVAAISGSGGTTYYADSVKGRFTISRDNAKNTVYLQMNSLKPEDTAVYYCAAYSGAYRKWLYDYWGQGTQVTVSS | high polyreactivity
QVQPQESGVGLVQAGGSLRLSCAASGTIFAFQTMGWYRQAPGKERELVASITYGSSTNYADSVKGRFTISRDNAKNTVYLLMNRLKPEDTAVYYCAVPQAQYYYDYWGQGTQVTVSS | high polyreactivity
QVQLVESGGGLVQAGGSLRLSCAASGFTFRYYAMGWYRQAPGKERELVAGISRGGSTYYADSVKGRFTISRDNAKNSVYLQMNSLKPEDTAVYYCAARSYARKSYEMGYWGQGTQVTVSS | high polyreactivity
QVQLVESGGGLVQAGGSLRLSCAASGSTFRWYTMGWYRQAPGKERELVAAITASGGSTFYADSVKGRFTISRDNAKNTVYLQMNSLKPEDTAVYYCAAVNRPRPRRSDYWGQGTQVTVSS | high polyreactivity
QVQLGESGGGLVQAGGSLRLSCAAAGFIFRPYAMGWYRQAPGKERELVAVISNSGGSSNYADSVKGRFSISRENAKNTVYLQMNSLKPEDTAVDYCNALVYVPHWWTYYDWGQGTQVTVSS | high polyreactivity
QVQLVESGGGLVQAGGSLRLSCAASGRIFGLNAMGWYRQAPGKEREFVAAIRWRGGSTYYADSVKGRFTISRDNAKNTVYLQMNSLKPEDTAVYYCAADRNLGVSRYGYWGQGTQVTVSS | high polyreactivity
